Assay results: US20100150834A1 (BURNHAM INSTITUTE, published 2010)
No end group written: not given here.

T1: EphB4 (receptor of Table 1) (Mus musculus (Mouse), UniProt P54761 16-539)
T1 sequence: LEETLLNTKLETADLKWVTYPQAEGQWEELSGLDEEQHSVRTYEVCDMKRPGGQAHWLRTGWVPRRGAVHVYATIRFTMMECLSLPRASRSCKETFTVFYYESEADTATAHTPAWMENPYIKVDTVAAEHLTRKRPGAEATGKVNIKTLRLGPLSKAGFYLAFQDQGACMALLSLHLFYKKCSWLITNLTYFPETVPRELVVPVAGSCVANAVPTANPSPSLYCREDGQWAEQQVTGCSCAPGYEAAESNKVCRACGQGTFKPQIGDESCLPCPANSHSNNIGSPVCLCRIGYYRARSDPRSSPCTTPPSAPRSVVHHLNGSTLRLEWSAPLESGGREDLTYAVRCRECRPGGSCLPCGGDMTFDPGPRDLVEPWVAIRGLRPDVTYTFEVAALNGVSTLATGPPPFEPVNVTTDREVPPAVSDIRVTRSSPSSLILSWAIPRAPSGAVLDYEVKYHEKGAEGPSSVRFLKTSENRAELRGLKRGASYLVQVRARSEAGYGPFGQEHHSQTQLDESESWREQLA

T2: murine EphB4 ectodomain (murine, UniProt P54761 16-539)
T2 construct: extracellular domain; Coated on wells; also called immobilized EphB4 receptor ectodomain
T2 sequence (looked up): T1 sequence

T3: murine EphB4-Alkaline Phosphatase (murine, UniProt P54761 16-539)
T3 construct: also called EphB4-AP; EphB4 AP; not shown: alkaline phosphatase
T3 sequence (looked up): T1 sequence

B1: EWLSPNLAPSVR peptide (SEQ ID NO:1) (peptide)
peptide: EWLSPNLAPSVR
notes: Panned on EphB1; Footnote e: biotinylated and non-biotinylated peptides gave the same IC50
B2: SNEWIQPRLPQH peptide (SEQ ID NO:18) (peptide)
peptide: SNEWIQPRLPQH
notes: Panned on EphB2; Footnote e: biotinylated and non-biotinylated peptides gave the same IC50
B3: biotinylated TNYLFSPNGPIA peptide (SEQ ID NO:24) (peptide)
peptide: TNYLFSPNGPIA
modifications: also: biotin, position not given here
notes: Footnote g: the ~50 µM value was obtained with the biotinylated peptide

What was measured:
[1] = target: EphB1 (receptor of Table 1); assay: EphB receptor specificity panel (% binding)
[2] = target: EphB2 (receptor of Table 1); assay: EphB receptor specificity panel (% binding)
[3] = target: EphB3 (receptor of Table 1); assay: EphB receptor specificity panel (% binding)
[4] = target: T1, EphB4 (receptor of Table 1); assay: EphB receptor specificity panel (% binding)
[5] = target: EphB6 (receptor of Table 1); assay: EphB receptor specificity panel (% binding)
[6] = target: EphB1 (receptor of Table 1); assay: inhibition of ephrin-B2 AP binding to EphB1 (panning receptor); biotinylated and non-biotinylated peptide gave the same result
Target sequence in this assay (Q8CBF3 18-540): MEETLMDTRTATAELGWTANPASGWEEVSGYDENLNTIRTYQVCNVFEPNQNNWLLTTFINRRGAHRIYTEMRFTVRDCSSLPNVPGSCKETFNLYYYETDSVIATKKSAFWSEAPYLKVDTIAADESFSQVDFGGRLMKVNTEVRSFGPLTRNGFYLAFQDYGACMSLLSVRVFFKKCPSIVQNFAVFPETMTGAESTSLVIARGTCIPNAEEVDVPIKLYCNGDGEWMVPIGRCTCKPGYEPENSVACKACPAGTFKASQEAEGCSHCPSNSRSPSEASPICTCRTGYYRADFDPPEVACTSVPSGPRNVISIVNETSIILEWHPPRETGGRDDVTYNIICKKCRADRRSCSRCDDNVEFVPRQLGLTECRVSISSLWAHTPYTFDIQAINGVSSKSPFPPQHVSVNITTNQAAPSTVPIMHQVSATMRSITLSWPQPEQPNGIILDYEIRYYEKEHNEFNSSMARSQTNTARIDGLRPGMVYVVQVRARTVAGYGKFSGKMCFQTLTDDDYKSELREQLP

[7] = target: T1, EphB4 (receptor of Table 1); assay: inhibition of ephrin-B2 AP binding to EphB4 (panning receptor); limited by solubility
[8] = target: EphB2 (receptor of Table 1); assay: inhibition of ephrin-B2 AP binding to EphB2 (panning receptor); biotinylated and non-biotinylated peptide gave the same result
murine EphB4 ectodomain = target: T2, murine EphB4 ectodomain; assay: inhibition of murine ephrin-B2 AP binding to immobilised murine EphB4 ectodomain
[9] = target: T3, murine EphB4-Alkaline Phosphatase; assay: competition ELISA: murine EphB4-AP binding to immobilised murine ephrin-B2-Fc
Method: Reati-bind Protein A coated strip plates were washed three times with wash buffer TBST/Ca. […] The plates were washed four times with TBST/Ca. […] Plates were incubates for 3 hours at ambient temperature, then washed four times with TBST/Ca. Substrate, 1 mg/ml PNPP in SEAP buffer, was added in the amount of 100 μl/well. (2×SEAP buffer (pH=9.8) was prepared by: adding 2.1 ml diethanolamine and 10 μl 1M MgCl₂ to 10 ml (total) water; adjusting pH to 9.8; wrapping in foil and storing at ambient temperature; and diluting with water to 1× on day of use).

[10] = target: T1, EphB4 (receptor of Table 1); assay: inhibition of ephrin-B2 AP binding to EphB4 (panning receptor); non-biotinylated peptide
[11] = target: T1, EphB4 (receptor of Table 1); assay: inhibition of ephrin-B2 AP binding to EphB4 (panning receptor); biotinylated peptide
[12] = target: EphB1 (receptor of Table 1); assay: inhibition of ephrin-B2 AP binding to EphB1 (panning receptor)
Target sequence in this assay (Q8CBF3 18-540): as above

Binder | % Binding [1] [%] | % Binding [2] [%] | % Binding [3] [%] | % Binding [4] [%] | % Binding [5] [%] | also measured
B1 | 100 | 2 | 1 | 1 | 0 | IC50 [6]: ~10 µM
TYFDFQAWSIRA (Panned on EphB4) [TYFDFQAWSIRA peptide (SEQ ID NO:22)] | 10 | 21 | 18 | 100 | 30 | IC50 [7]: > 50 µM
B2 | – | – | – | – | – | IC50 [8]: ~15 µM
TNYLFSPNGPIARAW (Synthetic, not biotinylated) [TNYL-RAW peptide TNYLFSPNGPIARAW (SEQ ID NO:39)] | – | – | – | – | – | IC50 (murine EphB4 ectodomain): ~0.04 µM; IC50 [9]: 0.016 µM
TNYLFSPNGPIA (Panned on EphB4; non-biotinylated form) [TNYLFSPNGPIA peptide (SEQ ID NO:24)] | 5 | 3 | 3 | 100 | 7 | IC50 [10]: 150 µM
B3 | – | – | – | – | – | IC50 [11]: ~50 µM
AHTFPYPHPKPH (Panned on EphB1) [AHTFPYPHPKPH peptide (SEQ ID NO:3)] | 100 | 4 | 8 | 1 | 0 | IC50 [12]: ~150 µM
